Data on one molecule can be found in patent US20040081647A1.

The target in this assay is recombinant human TNFα (RDI) (human) (UniProt P01375). As to the kind of experiment: cell-based or functional assay.
Chain of recombinant human TNFα (RDI) (human) (P01375 77-233 limits assumed): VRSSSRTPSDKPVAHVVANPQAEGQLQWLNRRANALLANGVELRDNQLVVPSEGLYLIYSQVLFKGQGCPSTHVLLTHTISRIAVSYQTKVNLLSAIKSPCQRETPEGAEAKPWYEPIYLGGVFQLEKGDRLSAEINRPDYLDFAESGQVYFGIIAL

B1: MMP7 (enzyme, UniProt P09237 95-267, looked up, species assumed)
Matrilysin: YSLFPNSPKWTSKVVTYRIVSYTRDLPHITVDRLVSKALNMWGKEIPLHFRKVVWGTADIMIGFARGAHGDSYPFDGPGNTLAHAFAPGTGLGGDAHFDEDERWTDGSSLGINFLYAATHELGHSLGMGHSSDPNAVMYPTYGNGDPQNFKLSQDDIKGIQKLYGKRSNSRKK
As to B1, the survival of L929 cells at the dilution equivalent to ˜600 pg/ml TNFα after digestion worked out at 40 % survival.
